According to the supplement of paper PMC7877785:
± gives the uncertainty stated by the source.

Assay: self-splicing fitness, log relative to wild type (ln ratio); higher = more splicing; Tetrahymena group I intron in knt gene, E. coli kanamycin selection, DiMSum; sequences stand for … in CUCUCU…GGAGGGAAAAGUUAUCAGGCAUGCACCUGGUAGCUAGUCUUUAAACCAAUAGAUUGCAUCGGUUUAAAAGGCAAGACCGUCAAAUUGCGGGAAAGGGGUCAACAGCCGUUCAGUACCAAGUCUCAGGGGAAACUUUGAGAUGGCCUUGCAAAGGGUAUGGUAAUAAGCUGACGGACAUGGUCCUAACCACGCAGCCAAGUCCUAAGUCAACAGAUCUUCUGUUGAUAUGGAUGCAGUUCACAGACUAAAUGUCGGUCGGGGAAGAUGUAUUCUUCUCAUAAGAUAUAGUCGGACCUCUCCUUAAUGGGAGCUAGCGGAUGAAGUGAUGCAACACUGGAGCCGCUGGGAACUAAUUUGUAUGCGAAAGUAUAUUGAUUAGUUUUGGAGUACUCGUGGUCG
Outline: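 Six replicate transformations of E. coli BL21(DE3) with a pET-22b(+) library were grown overnight at 37°C or 30°C. The library randomised all eight P1ex-region intron nucleotides, the intron lying in the knt kanamycin-resistance gene, and plates were LB agar with or without 25 μg/mL kanamycin plus 100 μg/mL carbenicillin, 50 μM IPTG and 0.2% rhamnose. Pooled colonies were amplicon-sequenced on an Illumina HiSeq 2500, and fitness is the DiMSum error-weighted combination of wild-type-normalised replicate fold changes, kanamycin versus none.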

Sequence	self-splicing fitness (ln) (30 °C)	self-splicing fitness (ln) (37 °C)
UGCCAGCAAUAUUACGCGUA	-1.13 ± 0.075	-0.301 ± 0.083
GCUAAGCAAUAUUACGGAUC	-0.406 ± 0.11	-0.265 ± 0.17
UUCAAGCAAUAUUACGGAUC	-1.5 ± 0.25	-2.84 ± 0.21
CGGAAGCAAUAUUACGUUCU	-1.91 ± 0.14	-0.77 ± 0.14
UUCCAGCAAUAUUACGCGUG	-1.43 ± 0.069	-0.516 ± 0.073
UACCAGCAAUAUUACGUCGU	-2.09 ± 0.09	-2.14 ± 0.12
UUUAAGCAAUAUUACGCUAU	-2.94 ± 0.27	-0.849 ± 0.21
AAGUAGCAAUAUUACGCGGU	-2.47 ± 0.31	-2.59 ± 0.39
UGUGAGCAAUAUUACGACAU	-3.682 ± 0.033	-2.45 ± 0.042
UGAGAGCAAUAUUACGUUGA		-2.55 ± 0.24
GUUAAGCAAUAUUACGUUAA	-2.24 ± 0.17	-1.79 ± 0.17
CUUCAGCAAUAUUACGCUGG	-3.83 ± 0.21	-2.15 ± 0.14
UGAUAGCAAUAUUACGUUCU	-1.68 ± 0.11	0.264 ± 0.11
GCUAAGCAAUAUUACGGGCU		-2.23 ± 0.31
UCCCAGCAAUAUUACGGGUG	-1.4 ± 0.06	-0.507 ± 0.075
AAAAAGCAAUAUUACGCUGC	-3.34 ± 0.4	
UUAGAGCAAUAUUACGUAGG	-2.7 ± 0.14	-1.5 ± 0.15
GACUAGCAAUAUUACGCAUU	-2.42 ± 0.14	-1.63 ± 0.13
CUAGAGCAAUAUUACGGGUG	0.162 ± 0.073	-0.643 ± 0.082
AAUCAGCAAUAUUACGGUCC	-0.242 ± 0.085	-0.118 ± 0.1
UGCGAGCAAUAUUACGCGCG	-2.71 ± 0.2	-2.72 ± 0.3
GAUGAGCAAUAUUACGUGAG	-2.88 ± 0.23	-2.06 ± 0.28
UGUGAGCAAUAUUACGAUUG	-2.19 ± 0.26	-0.226 ± 0.26
CAUUAGCAAUAUUACGAAUC	-4.46 ± 0.31	-2.49 ± 0.18
CUUUAGCAAUAUUACGCACA		-1.19 ± 0.35

Sequence	self-splicing fitness (ln) (30 °C)	self-splicing fitness (ln) (37 °C)
CUCAAGCAAUAUUACGGAAC	-4.26 ± 0.42	-2.46 ± 0.3
UACCAGCAAUAUUACGACAA	-0.483 ± 0.099	-0.494 ± 0.09
CGCUAGCAAUAUUACGGGUU	-2.73 ± 0.082	-2.04 ± 0.11
AUGCAGCAAUAUUACGGAUC	-2.52 ± 0.15	-2.7 ± 0.14
GGGCAGCAAUAUUACGAAAA	-2.12 ± 0.38	-2.31 ± 0.4
GAACAGCAAUAUUACGCGGG	-1.87 ± 0.1	-1.37 ± 0.11
GUUCAGCAAUAUUACGUUGA	-3.12 ± 0.28	-1.57 ± 0.17
CGGCAGCAAUAUUACGAACG	-1.11 ± 0.11	0.693 ± 0.15
GAUGAGCAAUAUUACGGCGA	-2.19 ± 0.17	-1.38 ± 0.13
CGGCAGCAAUAUUACGGAUA	-3.38 ± 0.22	-2.39 ± 0.18
GGGCAGCAAUAUUACGAAUU	-0.318 ± 0.12	-0.166 ± 0.17
GCCAAGCAAUAUUACGGGCG	-1.36 ± 0.09	-0.322 ± 0.11
GAUAAGCAAUAUUACGUGCG	-0.71 ± 0.083	-0.166 ± 0.13
ACCGAGCAAUAUUACGAAGU	-1.93 ± 0.16	-1.68 ± 0.22
CUAAAGCAAUAUUACGGCUC	-3.26 ± 0.4	
AUCCAGCAAUAUUACGAUCC	-1.43 ± 0.21	-0.865 ± 0.21
GGGCAGCAAUAUUACGUGCU	-3.46 ± 0.22	-2.16 ± 0.25
UGUUAGCAAUAUUACGUUGG	-1.56 ± 0.11	-1.26 ± 0.14
GAGGAGCAAUAUUACGGACA	-3.15 ± 0.33	-1.96 ± 0.3
AAGAAGCAAUAUUACGGGGA	-3.37 ± 0.29	-2.18 ± 0.17
CGAUAGCAAUAUUACGUAAA	-2.6 ± 0.32	-0.509 ± 0.26
CCCCAGCAAUAUUACGUAGC	-3.93 ± 0.16	-2.93 ± 0.2
GGUAAGCAAUAUUACGUCUA	-0.569 ± 0.1	-0.562 ± 0.1
GGGAAGCAAUAUUACGCUAA	-1.84 ± 0.2	-0.363 ± 0.18
